Data on one molecule can be found in patent US20120316071A1 (published 2012).

The target in experiment [1] is T1, rHuman HGF R/c-MET/Fc Chimera, CF (R&D Systems Cat#358-MT/CF) (human, UniProt P08581 25-932).
T1 construct: Bought recombinant protein; also called HGF R/Fc; Fc part of the bought chimera not given
As to the kind of experiment: ECL Multispot (MSD), antigen spotted; Fab 500 (µM); blank 570; first of duplicates.

The target of experiment [2] is T2, rHuman P-Cadherin/Fc Chimera, CF (R&D Systems Cat#861-PC) (human, UniProt P22223 108-654).
T2 construct: Bought recombinant protein; Fc part of the bought chimera not given
The description is as above.

Experiment [3] addresses T3, rHuman EGF R/Fc Chimera, CF (R&D Systems Cat#344-ER) (human, UniProt P00533 25-645).
T3 construct: Bought recombinant protein; Fc part of the bought chimera not given
The experiment is described as above.

Experiment [4] deals with T4, rHuman ErbB2/Fc Chimera, CF (R&D Systems Cat#1129-ER) (human, UniProt P04626 23-652).
T4 construct: Bought recombinant protein; Fc part of the bought chimera not given
The description is as above.

The target in experiment [5] is T5, Recombinant Human DLL4 (R&D Systems Cat#1506-D4/CF) (human, UniProt Q9NR61 27-529).
T5 construct: Bought recombinant protein; also called delta-like protein 4; rHuman DLL4
The description is as above.

Experiment [6] deals with T6, rHuman IGF-1 sR, CF (R&D Systems Cat#391-GR) (human, UniProt P08069 31-932).
T6 construct: Bought recombinant soluble receptor; also called insulin-like growth factor-1 soluble receptor
Described as above.

In experiment [7] the target is T1, rHuman HGF R/c-MET/Fc Chimera, CF (R&D …). As to the kind of experiment: ECL Multispot (MSD), antigen spotted; Fab 50 (µM); blank 332; first of duplicates.
Experiment [8] concerns the target T2, rHuman P-Cadherin/Fc Chimera, CF (R&D …). The description is as above.
Experiment [9] deals with T3, rHuman EGF R/Fc Chimera, CF (R&D …). The experiment is described as above.
The target of experiment [10] is T4, rHuman ErbB2/Fc Chimera, CF (R&D …). Described as above.
Experiment [11] concerns the target T5, Recombinant Human DLL4 (R&D Systems …). The experiment is described as above.
Experiment [12] addresses T6, rHuman IGF-1 sR, CF (R&D Systems …). The experiment is described as above.
In experiment [13] the target is T1, rHuman HGF R/c-MET/Fc Chimera, CF (R&D …). As to the kind of experiment: ECL Multispot (MSD), antigen spotted; Fab 5 (µM); blank 102; first of duplicates.
In experiment [14] the target is T2, rHuman P-Cadherin/Fc Chimera, CF (R&D …). The description is as above.
The target of experiment [15] is T3, rHuman EGF R/Fc Chimera, CF (R&D …). The experiment is described as above.
The target in experiment [16] is T4, rHuman ErbB2/Fc Chimera, CF (R&D …). The description is as above.
The target of experiment [17] is T5, Recombinant Human DLL4 (R&D Systems …). Described as above.
Experiment [18] concerns the target T6, rHuman IGF-1 sR, CF (R&D Systems …). The experiment is described as above.
For experiment [19], the target named is T1, rHuman HGF R/c-MET/Fc Chimera, CF (R&D …). As to the kind of experiment: ECL Multispot (MSD), antigen spotted; Fab 0.50 (µM); blank 95; first of duplicates.
The target in experiment [20] is T2, rHuman P-Cadherin/Fc Chimera, CF (R&D …). Described as above.
Experiment [21] has as its target T3, rHuman EGF R/Fc Chimera, CF (R&D …). The description is as above.
In experiment [22] the target is T4, rHuman ErbB2/Fc Chimera, CF (R&D …). The description is as above.
Experiment [23] addresses T5, Recombinant Human DLL4 (R&D Systems …). Described as above.
In experiment [24] the target is T6, rHuman IGF-1 sR, CF (R&D Systems …). The experiment is described as above.

T1 sequence (P08581 25-932, change not shown): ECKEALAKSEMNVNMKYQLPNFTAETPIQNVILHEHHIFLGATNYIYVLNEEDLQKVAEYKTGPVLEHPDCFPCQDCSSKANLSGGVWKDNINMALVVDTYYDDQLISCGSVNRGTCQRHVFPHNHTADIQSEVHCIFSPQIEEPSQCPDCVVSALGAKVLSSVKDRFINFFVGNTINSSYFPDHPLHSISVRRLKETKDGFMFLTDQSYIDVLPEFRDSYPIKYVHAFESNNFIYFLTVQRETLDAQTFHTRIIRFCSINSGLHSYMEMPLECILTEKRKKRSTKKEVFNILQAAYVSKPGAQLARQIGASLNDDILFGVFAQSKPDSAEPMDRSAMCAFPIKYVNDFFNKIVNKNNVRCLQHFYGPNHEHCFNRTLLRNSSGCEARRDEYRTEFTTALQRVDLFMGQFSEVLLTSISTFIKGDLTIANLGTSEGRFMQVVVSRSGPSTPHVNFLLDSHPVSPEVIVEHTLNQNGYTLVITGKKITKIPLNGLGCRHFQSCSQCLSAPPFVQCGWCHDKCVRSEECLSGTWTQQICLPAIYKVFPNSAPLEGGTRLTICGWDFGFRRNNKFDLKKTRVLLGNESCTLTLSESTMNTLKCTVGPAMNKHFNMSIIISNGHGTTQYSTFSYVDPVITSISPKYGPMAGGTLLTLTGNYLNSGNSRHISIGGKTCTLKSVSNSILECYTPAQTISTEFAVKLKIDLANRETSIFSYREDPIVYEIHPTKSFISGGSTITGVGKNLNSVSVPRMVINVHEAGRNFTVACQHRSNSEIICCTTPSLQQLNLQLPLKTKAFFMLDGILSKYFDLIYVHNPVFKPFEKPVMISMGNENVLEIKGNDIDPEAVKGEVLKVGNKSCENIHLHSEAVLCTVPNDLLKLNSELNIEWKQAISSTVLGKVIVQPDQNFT

B1: Fab VH1-46_IGHD6-6*01_IGHJ1*01 S102A/S103P/S104F/H111F (APFF) & L6_IGKJ1*01 (Fab, V domains shown)
VH: QVQLVQSGAEVKKPGASVKVSCKASGYTFTSYYMHWVRQAPGQGLEWMGIINPSGGSTSYAQKFQGRVTMTRDTSTSTVYMELSSLRSEDTAVYYCAREEYAPFSAEYFQFWGQGTLVTVSS
VL: not shown
notes: Tested as a Fab made in E. coli: VH cloned in Plasmid A (CH1 constant region, His6 and Flag tags), VL in Plasmid C (kappa constant region); also called H:APFF & L:wt
As to B1, the ECL signal in experiment [1] came out at 945; in [2] it was 1010; in [3], 2410; in experiment [4] it was 908; in experiment [5], 26900; in [6] it was 722. The ECL signal in experiment [7] was determined as 368; in experiment [8], 349; in [9], 452; in [10], 394; in experiment [11] it was 79400; in experiment [12] it was 283. The ECL signal in experiment [13] stood at 208; in experiment [14] it was 290; in [15] it was 229; in experiment [16], 225; in [17], 76300; in experiment [18], 232. For the same molecule, the ECL signal in experiment [19] was found to be 104; in experiment [20] it was 106; in [21] it was 137; in [22], 130; in experiment [23], 8320; in [24] it was 94.
